Test results published in patent publication US9395368B2, “Methods, agents and peptides for inducing an immune response to matrix metalloproteinase-2 expressing tumors” (New York University, priority 2010, dated 2016).

B1: heat-inactivated MMP-2: MMP-2 enzyme inactivated by heating to 56° C. for 45 min (protein, UniProt P08253 110-660, looked up)
72 kDa type IV collagenase: YNFFPRKPKWDKNQITYRIIGYTPDLDPETVDDAFARAFQVWSDVTPLRFSRIHDGEADIMINFGRWEHGDGYPFDGKDGLLAHAFAPGTGVGGDSHFDDDELWTLGEGQVVRVKYGNADGEYCKFPFLFNGKEYNSCTDTGRSDGFLWCSTTYNFEKDGKYGFCPHEALFTMGGNAEGQPCKFPFRFQGTSYDSCTTEGRTDGYRWCGTTEDYDRDKKYGFCPETAMSTVGGNSEGAPCVFPFTFLGNKYESCTSAGRSDGKMWCATTANYDDDRKWGFCPDQGYSLFLVAAHEFGHAMGLEHSQDPGALMAPIYTYTKNFRLSQDDIKGIQELYGASPDIDLGTGPTPTLGPVTPEICKQDIVFDGIAQIRGEIFFFKDRFIWRTVTPRDKPMGPLLVATFWPELPEKIDAVYEAPQEEKAVFFAGNEYWIYSASTLERGYPKPLTSLGLPPDVQRVDAAFNWSKNKKTYIFAGDKFWRYNEVKKKMDPGFPKLIADAWNAIPDNLDAVVDLQGGGHSYFFKGAYYLKLENQSLKSVKFGSIKSDWLGC
modifications: heat-inactivated
B2: MMP-2+I: MMP-2 enzyme inactivated by addition of the MMP-2 inhibitor III at 100 nM for 20 min (protein, UniProt P08253 110-660, looked up)
72 kDa type IV collagenase: YNFFPRKPKWDKNQITYRIIGYTPDLDPETVDDAFARAFQVWSDVTPLRFSRIHDGEADIMINFGRWEHGDGYPFDGKDGLLAHAFAPGTGVGGDSHFDDDELWTLGEGQVVRVKYGNADGEYCKFPFLFNGKEYNSCTDTGRSDGFLWCSTTYNFEKDGKYGFCPHEALFTMGGNAEGQPCKFPFRFQGTSYDSCTTEGRTDGYRWCGTTEDYDRDKKYGFCPETAMSTVGGNSEGAPCVFPFTFLGNKYESCTSAGRSDGKMWCATTANYDDDRKWGFCPDQGYSLFLVAAHEFGHAMGLEHSQDPGALMAPIYTYTKNFRLSQDDIKGIQELYGASPDIDLGTGPTPTLGPVTPEICKQDIVFDGIAQIRGEIFFFKDRFIWRTVTPRDKPMGPLLVATFWPELPEKIDAVYEAPQEEKAVFFAGNEYWIYSASTLERGYPKPLTSLGLPPDVQRVDAAFNWSKNKKTYIFAGDKFWRYNEVKKKMDPGFPKLIADAWNAIPDNLDAVVDLQGGGHSYFFKGAYYLKLENQSLKSVKFGSIKSDWLGC
modifications: with MMP-2 inhibitor III
B3: rhIL-12: recombinant human IL-12 from R&D Systems (protein)
chain 1: RNLPVATPDPGMFPCLHHSQNLLRAVSNMLQKARQTLEFYPCTSEEIDHEDITKDKTSTVEACLPLELTKNESCLNSRETSFITNGSCLASRKTSFMMALCLSSIYEDLKMYQVEFKTMNAKLLMDPKRQIFLDQNMLAVIDELMQALNFNSETVPQKSSLEEPDFYKTKIKLCILLHAFRIRAVTIDRVMSYLNAS
chain 2: IWELKKDVYVVELDWYPDAPGEMVVLTCDTPEEDGITWTLDQSSEVLGSGKTLTIQVKEFGDAGQYTCHKGGEVLSHSLLLLHKKEDGIWSTDILKDQKEPKNKTFLRCEAKNYSGRFTCWWLTTISTDLTFSVKSSRGSSDPQGVTCGAATLSAERVRGDNKEYEYSVECQEDSACPAAEESLPIEVMVDAVHKLKYENYTSSFFIRDIIKPDPPKNLQLKPLKNSRQVEVSWEYPDTWSTPHSYFSLTFCVQVQGKSKREKKDRVFTDKTSATVICRKNASISVRAQDRYYSSSWSEWASVPCS

What was measured:
Format in all cases: cell-based, human
[1] = test system: Cord blood-derived CD4+/CD25- cells; test: Priming of naive cord blood CD4+ T cells with autologous CD4- cells loaded with different sources of MMP-2; conditions: for percentage of MMP-2-specific CD4+ T cells secreting IL-4, mean: 11 cord blood donors, 15 days after priming, after background subtraction; for mean of the individual differences in IL-4 secreting cells versus priming with active MMP-2: paired within donors
Description: Cord blood-derived CD4^+/CD25^− cells from 11 donors were stimulated with irradiated autologous CD4^− cells loaded either with active MMP-2, heat-inactivated (HI) MMP-2 or with MMP-2 pre-incubated with a specific inhibitor (+I). After 15 days, CD4^+ T cells were stimulated with the MMP-2 peptide pool (2 μM) for 6 h before intracellular staining of cytokines. (A) Density plots representing cytokine production by CD4^+ T cells are shown for the representative donor CB35 primed to MMP-2 either in its active form or after heat-inactivation. Numbers indicate percentages of cytokine-producing cells upon MMP-2 peptide stimulation. […] MMP-2 enzymatic activity was controlled (FIG. 13C-D). For each cytokine, 3 paired t-tests were used to compare active MMP-2 to heat inactivated MMP-2, to MMP-2+I, and to MMP-2 peptides. P values≦0.0167 (*) were considered statistically significant using a Bonferroni correction for 3 comparisons.
(§1) T Cell culture, stimulation and priming. Peripheral blood mononuclear cells (PBMCs) were purified from healthy donor-(HD) or cord blood donor-(CB) derived buffy coats (New York Blood Center) by Ficoll-Paque Plus (GE Healthcare) centrifugation. CD4^+/CD25^− cells were enriched (>90%) by magnetic cell sorting (Miltenyi Biotec) and primed/stimulated for 12-15 days either with irradiated (35Gy) autologous CD4^− cells or with autologous mature DCs in IMDM (GIBCO) supplemented with 1 mM HEPES (Life Technologies), 2 mM L-glutamine (Sigma), streptomycin (100 UI/mL)/penicillin (100 μg/mL) (Sigma) and 5% heat inactivated pooled human serum (PHS; Valley Biomedical) in the presence of rhIL-2 (10 UI/mL) and IL7 (5 ng/mL) (R&D Systems). Antigen presenting cells (CD4^− cells or DCs) were loaded either with peptides (2 μM) or with the MMP-2 protein (10 μg/mL) for 2 and 5 h, respectively. DCs were matured using the TLR3 agonist poly(I:C) at 5 μg/mL/10^6 DCs (Amersham). To generate T cell clones, we originally relied on our published methodology (Godefroy et al., 2006; Godefroy et al., 2007; the entire contents of each of which is incorporated herein by reference), involving enrichment of IFNγ-secreting cells upon short-term culture and peptide stimulation to generate MMP-2 responsive clones. Briefly, CD4^+ T cells were stimulated by CD4^− cells irradiated and pulsed with peptides for 12 days in the presence of rhIL-2 and rhIL-7. CD4^+ T cells were then restimulated with peptides for 3 hours before capturing IFNγ-secreting specific cells using a bispecific antibody coating T cells and capturing produced IFNγ. Positive cells were purified magnetically before being cloned. Although MMP-2-specific cells could be isolated, it was realized that IFNγ secretion was marginal compared to their secretion of IL-4 and TNFα. IFNγ-secreting cells in response to MMP-2 peptide pool were enriched by cytokine-guided magnetic cell sorting (Miltenyi Biotec) as described above and cloned the following day by limiting dilution in the presence of irradiated allogeneic PBMCs, 1 μg/mL phytohemagglutinin-L (Sigma) and 150 UI/mL rhIL-2. Tumor infiltrating lymphocytes (TILs) were provided by Pr. F. Jotereau and B. Dréno. They were obtained from tumor-invaded lymph nodes of melanoma patients (stage Mb) and expanded ex vivo. These patients received autologous TILs and IL-2 infusions in a clinical trial (Labarriere et al., 2002). This protocol was approved by the Institutional Ethics Committee and registered with regulatory state authority in France (Nantes).
Intracellular staining T-bet and GATA-3 expression was measured on resting T cells. Cells were fixed (4% paraformaldehyde for 10 min at RT), permeabilized with 0.1% saponin, and stained for intracellular transcription factors. Cytokine production by T cells was also assessed by intracellular staining T cells were stimulated with 2 μM overlapping peptides. After 1 h, 10 μg/mL brefeldin A was added to the cells. […]

[2] = test system: Cord blood-derived CD4+/CD25- cells; test: Priming of naive CD4+ T cells to Melan-A/MART-1 or NY-ESO-1 with DCs pre-incubated with MMP-2
Description: (A) Cord blood-derived CD4^+/CD25^− cells were stimulated with autologous poly(I:C)-matured DCs pulsed with overlapping peptides spanning either Melan-A/MART-1 or NY-ESO-1. Prior to poly(I:C) addition, DCs were incubated with or without MMP-2 (active or heat-inactivated) for 1 h. MMP-2 enzymatic activity was controlled (FIG. 13C-D). After 15 days, CD4^+ T cells were stimulated with the Melan-A/MART-1 or NY-ESO-1 peptide pools (2 μM) for 6 h before intracellular staining of cytokines. Percentages of antigen-specific CD4^+ T cells, secreting indicated cytokines, are represented for all donors. (B) Contour plots showing percentages of cytokine-producing CD4^+ T cells are shown for representative donor CB45 primed to Melan-A/MART-1. Percentage of secreting cells upon peptide stimulation was considered specific/positive when it exceeded by more than twofold the background (cytokine-secreting cells in the absence of stimulation) and had more than 0.5% of responding cells (after background subtraction) for at least one cytokine. For each cytokine, 2 paired t-tests were used to compare priming in the presence of active MMP-2 to either priming in the absence of active MMP-2 or with HI MMP-2. The Bonferroni adjustment was used for multiple comparisons. P values≦0.025 (*) were considered statistically significant using a Bonferroni correction for 2 comparisons.
as §1, with “(Nantes). […]” for “(Nantes).”

[3] = test system: Cord blood-derived CD4+/CD25- cells; test: Priming of naive CD4+ T cells with active MMP-2-loaded DCs with rhIL-12 or blocking mAb for OX40L or IL-4
Description: […] CD4^+ T cells were then stimulated with the MMP-2 peptide pool (2 μM) for 6 h before intracellular staining of cytokines. Contour plots representing cytokine production by CD4^+ T cells are shown for donor CB31 CD4^+ T cells primed to MMP-2 alone, or together with rhIL-12, anti-OX40L mAb or anti-IL-4 mAb. (B) Percentages of MMP-2-specific CD4^+ T cells, secreting indicated cytokines, are represented for all donors. For each cytokine, 5 paired t-tests were used to compare “no conditioning” versus various conditions. P values≦0.01 (*) were considered statistically significant using a Bonferroni correction for 5 comparisons.
as §1, with “IFNγ-secreting cells in response to MMP-2 peptide pool were enriched by cytokine-guided magnetic cell sorting (Miltenyi Biotec) as described above and cloned the following day by limiting dilution in the presence of irradiated allogeneic PBMCs, 1 μg/mL phytohemagglutinin-L (Sigma) and 150 UI/mL rhIL-2. Tumor infiltrating lymphocytes (TILs) were provided by Pr. F. Jotereau and B. Dréno. They were obtained from tumor-invaded lymph nodes of melanoma patients (stage Mb) and expanded ex vivo. These patients received autologous TILs and IL-2 infusions in a clinical trial (Labarriere et al., 2002). This protocol was approved by the Institutional Ethics Committee and registered with regulatory state authority in France (Nantes).” left out
Intracellular staining T-bet and GATA-3 expression was measured on resting T cells. […] Cytokine production by T cells was also assessed by intracellular staining T cells were stimulated with 2 μM overlapping peptides. […]

[4] = rhIL-12 10 ng/mL or mAb 10 μg/mL throughout priming

Row | Molecule | percentage of MMP-2-specific CD4+ T cells secreting IL-4, mean [1] [%] | mean of the individual differences in IL-4 secreting cells versus priming with active MMP-2 [1] | IFNγ, mean of differences relative to priming in the presence of active MMP-2 [2] | IL-2, mean of differences relative to priming in the presence of active MMP-2 [2] | IL-4, mean of differences relative to priming in the presence of active MMP-2 [2] | IFNγ-secreting cells ([3]; doses as low as 1 ng/mL) | percentages of IL4-secreting T cells ([3]; doses as low as 1 ng/mL) | IFNγ secretion by primed MMP-2-specific CD4+ T cells versus no conditioning [3, 4] | IL-4 secretion by primed MMP-2-specific CD4+ T cells versus no conditioning [3, 4]
1 | B1 | 0.45 | 1.80 | 0.21 | 0.11 | 1.92 | – | – | – | –
2 | B2 | 0.12 | 1.47 | – | – | – | – | – | – | –
3 | B3 | – | – | – | – | – | more | lower percentages | more | less
